Laboratory results as given in publication PMC3595323 (Proteins, 2013).

Biological target: the molecule itself
Experiment: crystal structure

B1: Thermoplasma acidophilum nucleoside kinase Ta0880, crystallization construct (E112A, K113A, K115A) (enzyme, UniProt Q9HJT3 1-287, looked up)
chain: MRFLAYFGHLNIDVLISVDSIPREGSVNVKDLRPRFGGTAGNFAIVAQKFRIPFDLYSAVGMKTHREYLAMIESMGINTGHVEKFEDESGPICYIATDGKKQVSFMHQGAMAAWAPQLADEYEYVHFSTGPNYLDMAKSIRSKIIFDPSQEIHKYSKDELKKFHEISYMSIFNDHEYRVFREMTGLSSPKVTTIVTNGERGSSLFMDGKKYDFPAIPSSGDTVGAGDSFRAGLYLALYNRRSIEKGMIYGTIIAHHVIDDGIENFSLNMEDLERETENYRRMFTKRS
modifications: selenomethionine (expressed in selenomethionine-containing medium with suppression of normal methionine synthesis)
B1: binds.
